In PMC6607443, “Systematic identification of recognition motifs for the hub protein LC8” (Life Science Alliance, 2019):

Molecular target: dynein light chain LC8 (UniProt P63167)
Assay: ITC; peptide (500 μM) injected into 25 μM LC8 in the cell; 25°C; 50 mM sodium phosphate, 50 mM NaCl, 1 mM sodium azide, 5 mM β-mercaptoethanol, pH 7.5; single-site model; averages of two to three experiments

Chain of dynein light chain LC8 (P63167 whole entry): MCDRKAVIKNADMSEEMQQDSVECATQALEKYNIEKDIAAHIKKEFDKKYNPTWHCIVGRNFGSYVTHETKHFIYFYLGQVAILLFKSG

Work on “HIV Tat-specific factor 1 (HTATSF1) peptide” yielded a Kd of 10 µM and a stoichiometry N (peptide per LC8 chain) of 1.
